B1: C9ORF80, His-tagged (natural protein, human, UniProt Q9NRY2 1-104, looked up)
chain: MAANSSGQGFQNKNRVAILAELDKEKRKLLMQNQSSTNHPGASIALSRPSLNKDFRDHAEQQHIAAQQKAALQHAHAHSSGYFITQDSAFGNLILPVLPRLDPE
notes: C9ORF80, human cDNA clone; pET28a, NcoI/XhoI sites (this would give a C-terminal His tag); the printed masses fit the whole 104-residue protein; also called C9OFR80; source: peak 2); also co-expressed with GST-INTS3 and hNABP1/2 in E. coli Rosetta 2, in lysate
B2: Human nucleic acid-binding protein 2 (hNABP2) (natural protein, UniProt Q9BQ15 1-211, looked up)
chain: MTTETFVKDIKPGLKNLNLIFIVLETGRVTKTKDGHEVRTCKVADKTGSINISVWDDVGNLIQPGDIIRLTKGYASVFKGCLTLYTGRGGDLQKIGEFCMVYSEVPNFSEPNPEYSTQQAPNKAVQNDSNPSASQPTTGPSAASPASENQNGNGLSAPPGPGGGPHPPHTPSHPPSTRITRSQPNHTPAGPPGPSSNPVSNGKETRRSSKR
notes: also called hSSB1; source: also co-expressed (pET29a) with GST-INTS3 and C9ORF80 in E. coli Rosetta 2, in lysate
B3: Human nucleic acid-binding protein 1 (hNABP1) (natural protein, UniProt Q96AH0 1-204, looked up)
chain: MNRVNDPLIFIRDIKPGLKNLNVVFIVLEIGRVTKTKDGHEVRSCKVADKTGSITISVWDEIGGLIQPGDIIRLTRGYASMWKGCLTLYTGRGGELQKIGEFCMVYSEVPNFSEPNPDYRGQQNKGAQSEQKNNSMNSNMGTGTFGPVGNGVHTGPESREHQFSHAGRSNGRGLINPQLQGTASNQTVMTTISNGRDPRRAFKR
notes: also called hSSB2; source: also co-expressed (pET29a) with GST-INTS3 and C9ORF80 in E. coli Rosetta 2, in lysate

Molecular target: T1, GST-tagged N-terminal region of INTS3 (GST-INTS3^N, 1-513 amino acids) (human, UniProt Q68E01 1-513)
T1 construct: Integrator complex subunit 3 (INTS3), human, N-terminal region, residues 1-513; pGEX-6P-1; source: E. coli Rosetta 2, purified (glutathione sepharose beads); not shown: GST, N-terminal, kept
Assay: pull-down; GST-INTS3^FL, -INTS3^N or -INTS3^C incubated with hNABP1/2 or C9ORF80 at 4 C for 1 h, then glutathione-agarose beads 1 h; eluted with 10 mM glutathione; Western blot
Conditions: both partners purified

T1 sequence (Q68E01 1-513): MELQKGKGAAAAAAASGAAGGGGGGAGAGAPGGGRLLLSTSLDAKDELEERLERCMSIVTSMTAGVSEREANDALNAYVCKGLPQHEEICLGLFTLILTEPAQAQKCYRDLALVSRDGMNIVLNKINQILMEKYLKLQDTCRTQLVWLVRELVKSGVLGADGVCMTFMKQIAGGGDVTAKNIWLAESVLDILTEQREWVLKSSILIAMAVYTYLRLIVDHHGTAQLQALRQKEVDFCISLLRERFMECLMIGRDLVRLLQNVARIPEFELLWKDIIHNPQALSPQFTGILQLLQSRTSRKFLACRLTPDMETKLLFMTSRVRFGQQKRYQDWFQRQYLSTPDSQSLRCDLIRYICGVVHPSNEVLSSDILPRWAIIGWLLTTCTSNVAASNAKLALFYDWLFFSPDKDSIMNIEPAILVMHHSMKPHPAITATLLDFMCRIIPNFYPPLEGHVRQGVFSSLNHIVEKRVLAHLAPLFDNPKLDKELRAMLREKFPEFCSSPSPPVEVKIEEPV

binding result	Binder
binds	B1
binds	B2
binds	B3

Source: paper PMC5748837, “Biochemical characterization of INTS3 and C9ORF80, two subunits of hNABP1/2 heterotrimeric complex in nucleic acid binding” (Biochemical Journal, 2017)
